Where two headings read alike, the source gives them in different places.
Tests used:
Assay in all cases: cell-based or functional assay
[1] = molecular target: HIV-1 Env of strain CAP45.2.00.G3 (HIV-1)
[2] = molecular target: HIV-1 Env of strain TRO.11 (HIV-1)
[3] = molecular target: HIV-1 Env of strain QH0692.42 (HIV-1)
[4] = molecular target: HIV-1 Env of strain AC10.0.29 (HIV-1)
[5] = molecular target: HIV-1 Env of strain T257-31 (HIV-1)
[6] = molecular target: HIV-1 Env of strain ZM214M.PL15 (HIV-1)
[7] = molecular target: HIV-1 Env of strain SC422661.8 (HIV-1)
[8] = molecular target: HIV-1 strain CAP45.2.00.G3 envelope (gp120) (HIV-1)
[9] = molecular target: HIV-1 strain CAP210.2.00.E8 envelope (gp120) (HIV-1)
[10] = molecular target: HIV-1 strain Du172.17 envelope (gp120) (HIV-1)
[11] = molecular target: HIV-1 strain TRO.11 envelope (gp120) (HIV-1)
[12] = molecular target: HIV-1 strain AC10.0.29 envelope (gp120) (HIV-1)
[13] = molecular target: HIV-1 strain SC422661.8 envelope (gp120) (HIV-1)
[14] = molecular target: HIV-1 strain CAP45.2.00.G3 envelope (gp120) (HIV-1); remark: listed apart in the source
[15] = molecular target: HIV-1 strain TRO.11 envelope (gp120) (HIV-1); remark: listed apart in the source
[16] = molecular target: HIV-1 strain AC10.0.29 envelope (gp120) (HIV-1); remark: listed apart in the source
[17] = molecular target: HIV-1 strain QH0692.42 envelope (gp120) (HIV-1)
[18] = molecular target: HIV-1 strain T257-31 envelope (gp120) (HIV-1)
[19] = molecular target: HIV-1 strain ZM214M.PL15 envelope (gp120) (HIV-1)
[20] = molecular target: HIV-1 strain SC422661.8 envelope (gp120) (HIV-1); remark: listed apart in the source

Binder	neutralization IC50 [8]	neutralization IC50 [9]	neutralization IC50 [10]	neutralization IC50 [11]	neutralization IC50 [12]	neutralization IC50 [13]	further results
NIH45-46 Δ99a-99d IgG (antibody, V domains shown) VH: QVRLSQSGGQMKKPGESMRLSCRASGYEFLNCPINWIRLAPGRRPEWMGWLKPRGGAVNYARKFQGRVTMTRDVYSDTAFLELRSLTSDDTAVYFCTRGKYCTYNWDFEHWGRGAPVTVSS VL: EIVLTQSPATLSLSPGETAIISCRTSQSGSLAWYQQRPGQAPRLVIYSGSTRAAGIPDRFSGSRWGADYNLSISNLESGDFGVYYCQQYEFFGQGTKVQVDI	–	–	–	–	–	–	neutralization IC50 [1]: > 50 µg/mL; neutralization IC50 [2]: > 50 µg/mL; neutralization IC50 [3]: 3.7 µg/mL; neutralization IC50 [4]: 13 µg/mL; neutralization IC50 [5]: 7 µg/mL; neutralization IC50 [6]: 2.2 µg/mL; neutralization IC50 [7]: 1.4 µg/mL
3BNC60 IgG (antibody, V domains shown) VH: QVHLSQSGAAVTKPGASVRVSCEASGYKISDHFIHWWRQAPGQGLQWVGWINPKTGQPNNPRQFQGRVSLTRQASWDFDTYSFYMDLKAVRSDDTAIYFCARQRSDFWDFDVWGSGTQVTVSS VL: DIQMTQSPSSLSARVGDTVTITCQANGYLNWYQQRRGKAPKLLIYDGSKLERGVPARFSGRRWGQEYNLTINNLQPEDVATYFCQVYEFIVPGTRLDLKRTVA	10 µg/mL	4.7 µg/mL	0.05 µg/mL	0.07 µg/mL	13 µg/mL	0.1 µg/mL	–
3BNC117 IgG (antibody, V domains shown) VH: QVQLLQSGAAVTKPGASVRVSCEASGYNIRDYFIHWWRQAPGQGLQWVGWINPKTGQPNNPRQFQGRVSLTRHASWDFDTFSFYMDLKALRSDDTAVYFCARQRSDYWDFDVWGSGTQVTVSS VL: DIQMTQSPSSLSASVGDTVTITCQANGYLNWYQQRRGKAPKLLIYDGSKLERGVPSRFSGRRWGQEYNLTINNLQPEDIATYFCQVYEFVVPGTRLDLKRTVA	16 µg/mL	11 µg/mL	0.04 µg/mL	0.6 µg/mL	6.5 µg/mL	0.07 µg/mL	–
3BNC55 IgG (antibody, V domains shown) VH: QVQLVQSGTAVKRPGASVRVSCQASGYTFTDYFIYWWRQAPGQGLEWLGWINPLTSQPSYPSRFQGRLTLTRDTFDEMLYMDLRGLRSDDTGIYFCARRHSDYCDFDIWGSGTQIIVSS VL: DIQMTQSPSSLSASVGDKVTITCQTSAGYLNWYQQRRGRAPKLLMYDGSRLVTGVPSRFSGRRWGTQYNLTIGSLQPEDIATYYCQVYEFFGPGTRLDLKS	> 50 µg/mL	> 50 µg/mL	2 µg/mL	7.6 µg/mL	> 50 µg/mL	0.3 µg/mL	–
12A12 IgG (antibody, V domains shown) VH: SQHLVQSGTQVKKPGASVRISCQASGYSFTDYVLHWWRQAPGQGLEWMGWIKPVYGARNYARRFQGRINFDRDIYREIAFMDLSGLRSDDTALYFCARDGSGDDTSWHLDPWGQGTLVIVSA VL: DIQMTQSPSSLSASVGDRVTITCQAGQGIGSSLQWYQQKPGKAPKLLVHGASNLHRGVPSRFSGSGFHTTFSLTISGLQRDDFATYFCAVLEFFGPGTKVEIKR	0.4 µg/mL	> 50 µg/mL	0.2 µg/mL	0.3 µg/mL	0.6 µg/mL	0.2 µg/mL	–
NIH45-46 heavy chain paired with the VRC01 light chain (IgG) (antibody, V domains shown) VH: QVRLSQSGGQMKKPGESMRLSCRASGYEFLNCPINWIRLAPGRRPEWMGWLKPRGGAVNYARKFQGRVTMTRDVYSDTAFLELRSLTSDDTAVYFCTRGKYCTARDYYNWDFEHWGRGAPVTVSS VL: EIVLTQSPGTLSLSPGETAIISCRTSQYGSLAWYQQRPGQAPRLVIYSGSTRAAGIPDRFSGSRWGPDYNLTISNLESGDFGVYYCQQYEFFGQGTKVQVDI	–	–	–	–	–	–	neutralization IC50 [14]: 2.1 µg/mL; neutralization IC50 [15]: 0.3 µg/mL; neutralization IC50 [16]: 1 µg/mL; neutralization IC50 [17]: 0.9 µg/mL; neutralization IC50 [18]: 0.6 µg/mL; neutralization IC50 [19]: 0.6 µg/mL; neutralization IC50 [20]: 0.2 µg/mL

Reference: patent US20130209454A1 (CALIFORNIA INSTITUTE OF TECHNOLOGY, published 2013)
